Publication PMC3728347
Each block holds one substance with its values, some of them ahead of it.

What was measured:
[1] = molecular target: GNMT L210S mutant (UniProt Q14749); assay: SEC; size-exclusion chromatography on Sephacryl S300 of the folate-site mutants
[2] = molecular target: GNMT M218D mutant (UniProt Q14749); assay: as above
[3] = molecular target: GNMT W30F mutant (UniProt Q14749); assay: SEC; size-exclusion chromatography of wild type GNMT and catalytic-centre mutants; data not shown
[4] = molecular target: GNMT Y6E mutant (UniProt Q14749); assay: SEC; size-exclusion chromatography on Sephacryl S300 of the folate-site mutants
[5] = molecular target: GNMT D70A mutant (UniProt Q14749); assay: SEC; size-exclusion chromatography of wild type GNMT and catalytic-centre mutants; data not shown
[6] = molecular target: Glycine N-methyltransferase, wild type (UniProt Q14749); assay: as above
[7] = molecular target: GNMT Y244A mutant (UniProt Q14749); assay: as above

percent of the protein as dimer [1]: 50% | percent of the protein as monomer [1]: 10% | percent of the protein as tetramer [1]: 40%
Substance: GNMT L210S mutant (from UniProt Q14749 1-295) (enzyme)

stoichiometry N [2]: 4
Substance: GNMT M218D mutant (from UniProt Q14749 1-295) (enzyme)

stoichiometry N [3]: 4
Substance: GNMT W30F mutant (from UniProt Q14749 1-295) (enzyme)

stoichiometry N [4]: 4
Substance: GNMT Y6E mutant (from UniProt Q14749 1-295) (enzyme)

stoichiometry N [5]: 4
Substance: GNMT D70A mutant (from UniProt Q14749 1-295) (enzyme)

stoichiometry N [6]: 4
Substance: Glycine N-methyltransferase, wild type (from UniProt Q14749 1-295) (enzyme)

stoichiometry N [7]: 4
Substance: GNMT Y244A mutant (from UniProt Q14749 1-295) (enzyme)
